US10174336B2, “Herbicide-tolerant plants” (BASF Agrochemical Products B.V., priority 2010, dated 2019)

How the values were obtained:
[1] = tested on: Sb01g007420.1; assay: Yeast expression system, saflufenacil metabolism (LC/MS/MS); assay type: in vitro ADME, sorghum; conditions: yeast cells expressing Sb01g007420.1, 24 h incubation
[2] = tested on: OsICYP81A6; assay: as above; assay type: in vitro ADME, rice
Text: Rice cytochrome P450 81A6 was cloned into pESC-His yeast expression vector (Stratagene) using BamHI and SalI. Constructs were transformed into YPH500 yeast strain (Stratagene) using a Yeast Maker Transformation System from Clontech. Positive clones were selected on SD-agar plates (0.7% yeast nitrogen base without amino acids, 2% glucose, 0.13% amino acid drop-out without histidine; plates solidified with 2% agar). Bioconversion of substrates was directly assayed in yeast cells expressing the respective cytochrome P450 gene. Cells were induced in SG-His medium (same composition as SD but with galactose instead of glucose) for 18-24 h (Pompon et al., Methods in Enzymology 272:51-64 (1996); Urban et al., Eur. J. Biochem. 222:[…] (1994)). Afterwards, the BAS800H substrate was added and samples were incubated for an additional 24 h. Samples were analyzed by LC/MS/MS.

[3] = tested on: transgenic maize plants; assay: Maize whole plant saflufenacil spray test (T0 and T1); assay type: in vivo; conditions: 240 g ai/ha saflufenacil + 1% MSO at 2-4 leaf stage; rated 7 and 14 days after application
Protocol: Immature Embryo Transformation: Immature embryos were transformed according to the procedure outlined in WO2006/136596 to Peng et al. The exception was that a proportion of the embryos—25 in most cases—were placed on media containing saflufenacil and kept in the light for direct selection. The remaining embryos in each experiment were selected on Pursuit as described. Plants were tested utilizing Taqman analysis with the target being the nos terminator which is present in all constructs. Healthy looking plants were sent to the greenhouse for hardening out and subsequent spray testing. As with the BMS cells, RCB958 was utilized as a control both for transformation, saflufenacil selection, and for spray testing.
A total of 82 transgenic maize plants (2 constructs of interest and 1 control construct) were delivered to the greenhouse in tissue culture. The plants were individually transplanted into MetroMix 360 soil in 4″ pots. […]
Sixteen vectors harboring different P450 genes were tested for the ability to increase tolerance to saflufenacil in T0 maize plants. […] Injury rating was evaluated 7 and 14 days after application. FIG. 5 indicates the number of plants from each segregating event that were evaluated and scored for herbicidal injury.

[4] = tested on: maize, rice, and soybean transgenic systems; assay: Saflufenacil tolerance in transgenic plant systems (FIG. 3 legend); assay type: in vivo; conditions: in one or more transgenic plant systems
[5] = tested on: T0 soybean cuttings; assay: Soybean T0 cuttings saflufenacil spray test; assay type: in vivo, Soybean cv Williams 82; conditions: 0, 25, or 50 g ai/ha saflufenacil + 1% MSO; evaluated 7 days after treatment
Protocol: Soybean cv Williams 82 was transformed as previously described by Siminszky et al., Phytochem Rev. 5:445-458 (2006). After regeneration, transformants were transplanted to soil in small pots, placed in growth chambers (16 hr day/8 hr night; 25° C. day/23° C. night; 65% relative humidity; 130-150 μE m^−2 s^−1) and subsequently tested for the presence of the T-DNA via Taqman analysis. After a few weeks, healthy, transgenic positive, single copy events were transplanted to larger pots and allowed to grow in the growth chamber. An optimal shoot for cutting was about 3-4″ tall, with at least two nodes present. Each cutting was taken from the original transformant (mother plant) and dipped into rooting hormone powder (indole-3-butyric acid, IBA). The cutting was then placed in oasis wedges inside a bio-dome. The mother plant was taken to maturity in the greenhouse and harvested for seed. Wild type cuttings were also taken simultaneously to serve as negative controls. The cuttings were kept in the bio-dome for 5-7 days and then transplanted to 3″ pots and then acclimated in the growth chamber for two more days. Subsequently, the cuttings were transferred to the greenhouse, acclimated for approximately 4 days, and then subjected to spray tests containing 0, 25, and 50 g ai/ha saflufenacil plus 1% MSO. Herbicide injury evaluations were taken at 7 days after treatment.

Molecule	tolerance of segregating T1 maize events (reduced injury scores vs J553 wild type) [3]	conferred tolerance to saflufenacil [4]	level of tolerance to saflufenacil in T0 soybean cuttings [5]	further results
CC(C)N(C)S(=O)(=O)NC(=O)c1cc(-n2c(=O)cc(C(F)(F)F)n(C)c2=O)c(F)cc1Cl [BAS800H, 2-chloro-5-[3,6-dihydro-3-methyl-2,6-dioxo-4-(trifluoromethyl)-1(2H)-pyrimidinyl]-4-fluoro-N-[[methyl(1-methylethyl)amino]sulfonyl]benzamide]				degradation of BAS800H [1]: catalyzed degradation; initial content of BAS800H converted into several metabolites ([2]; after 24 h incubation in P450-expressing yeast, enzyme not specified (OsICYP81A6 and Sb01g007420.1 named)): 10%; degradation of BAS800H ([2]; yeast cells expressing OsICYP81A6, 24 h incubation): catalyzed degradation
OsICYP81 A: CYP450 gene/polypeptide OsICYP81A6, amino acid sequence SEQ ID NO:29 (protein, listed as Oryza sativa) MDNAYIIAILSVAILFLLHYYLLGRGNGGAARLPPGPPAVPILGHLHLVKKPMHATMSRLAERYGPVFSLRLGSRRAVVVSSPGCARECFTEHDVTFANRPRFESQLLVSFNGAALATASYGAHWRNLRRIVAVQLLSAHRVGLMSGLIAGEVRAMVRRMYRAAAASPAGAARIQLKRRLFEVSLSVLMETIAHTKATRPETDPDTDMSVEAQEFKQVVDEIIPHIGAANLWDYLPALRWFDVFGVRRKILAAVSRRDAFLRRLIDAERRRLDDGDEGEKKSMIAVLLTLQKTEPEVYTDNMITALTANLFGAGTETTSTTSEWAMSLLLNHPDTLKKAQAEIDASVGNSRLITADDVTRLGYLQCIVRETLRLYPAAPMLLPHESSADCKVGGYNIPRGSMLLINAYAIHRDPAVWEEPEKFMPERFEDGGCDGNLLMPFGMGRRRCPGETLALRTVGLVLGTLIQCFDWERVDGVEVDMTEGGGLTIPKVVPLEAMCRPRDAMGGVLRELV	increased tolerance			
OsCYP72A15: rice cytochrome P450 CYP72A15 gene/polypeptide, amino acid sequence SEQ ID NO:7 (protein, listed as Oryza sativa) MLMMLGAASQWILAAAAAAAVAALLWLAVSTLEWAWWTPRRLERALRAQGIRGNRYRLFTGDVPENVRLNREARKKPLPLGCHDIIPRVLPMFSKAVEEHGKPSFTWFGPTPRVMISDPESIREVMSNKFGHYGKPKPTRLGKLLASGVVSYEGEKWAKHRRILNPAFHHEKIKRMLPVFSNCCTEMVTRWENSMSIEGMSEVDVWPEFQNLTGDVISKTAFGSSYEEGRRIFQLQAESAERIIQAFRTIFIPGYWFLPTKNNRRLREIEREVSKLLRGIIGKRERAIKNGETSNGDLLGLLVESNMRESNGKAELGMTTDEIIEECKLFYFAGMETTSVLLTWTLIVLSMHPEWQERAREEVLHHFGRTTPDYDSLSRLKIVTMILYEVLRLYPPVVFLTRRTYKEMELGGIKYPAEVTLMLPILFIHHDPDIWGKDAGEFNPGRFADGISNATKYQTSFFPFGWGPRICIGQNFALLEAKMAICTILQRFSFELSPSYIHAPFTVITLHPQHGAQIKLKKI		conferred tolerance		
OsjCYP81A6: rice cytochrome P450 CYP81A6 gene/polypeptide, amino acid sequence SEQ ID NO:1 (protein, listed as Oryza sativa) MAFLGWAVDIARDSGASSSVVLTCDGYGSALYFSPWDSVPLPATASPDDGFLLPRFPDVCVQRSQFTNHLAPANGTGGGGSRTGVKEEASEVLSWPPTSKQSVRRLEVAEHWYRLYKTDNQRLSPDSQQVSVLAESHCDLASGNWKEISIHHKKMPSSTTTKTTTPSRDAWIVSARSDPFHLLLEAQAPLGIKADALSQIAAVHQSHRNTSHIRELSLAMDNAYIIAILSVAILFLLHYYLLGRGNGGAARLPPGPPAVPILGHLHLVKKPMHATMSRLAERYGPVFSLRLGSRRAVVVSSPGCARECFTEHDVTFANRPRFESQLLVSFNGAALATASYGAHWRNLRRIVAVQLLSAHRVGLMSGLIAGEVRAMVRRMYRAAAASPAGAARIQLKRRLFEVSLSVLMETIAHTKATRPETDPDTDMSVEAQEFKQVVDEIIPHIGAANLWDYLPALRWFDVFGVRRKILAAVSRRDAFLRRLIDAERRRLDDGDEGEKKSMIAVLLTLQKTEPEVYTDNMITALTANLFGAGTETTSTTSEWAMSLLLNHPDTLKKAQAEIDASVGNSRLITADDVTRLGYLQCIVRETLRLYPAAPMLLPHESSADCKVGGYNIPRGSMLLINAYAIHRDPAVWEEPEKFMPERFEDGGCDGNLLMPFGMGRRRCPGETLALRTVGLVLGTLIQCFDWERVDGVEVDMTEGGGLTIPKVVPLEAMCRPRDAMGGVLRELV	increased tolerance		greatest level of tolerance	
ZmNSF1: corn NSF1 cytochrome P450 gene/polypeptide, amino acid sequence SEQ ID NO:3 (protein, Zea mays) MDKAYIAALSAAALFLLHYLLGRRAGGEGKAKAKGSRRRLPPSPPAIPFLGHLHLVKAPFHGALARLAARHGPVFSMRLGTRRAVVVSSPDCARECFTEHDVNFANRPLFPSMRLASFDGAMLSVSSYGPYWRNLRRVAAVQLLSAHRVGCMAPAIEAQVRAMVRRMDRAAAAGGGGVARVQLKRRLFELSLSVLMETIAHTKTSRAEADADSDMSTEAHEFKQIVDELVPYIGTANRWDYLPVLRWFDVFGVRNKILDAVGRRDAFLGRLIDGERRRLDAGDESESKSMIAVLLTLQKSEPEVYTDTVITALCANLFGAGTETTSTTTEWAMSLLLNHREALKKAQAEIDAAVGTSRLVTADDVPHLTYLQCIVDETLRLHPAAPLLLPHESAADCTVGGYDVPRGTMLLVNVHAVHRDPAVWEDPDRFVPERFEGAGGKAEGRLLMPFGMGRRKCPGETLALRTVGLVLATLLQCFDWDTVDGAQVDMKASGGLTMPRAVPLEAMCRPRTAMRGVLKRL		conferred tolerance	greatest level of tolerance	
